Measurements from patent US20090181009A1 (ARCA BIOPHARMA, published 2009).

T1: human NTB-A (full-length, on cells) (human, UniProt Q96DU3 22-332)
T1 sequence: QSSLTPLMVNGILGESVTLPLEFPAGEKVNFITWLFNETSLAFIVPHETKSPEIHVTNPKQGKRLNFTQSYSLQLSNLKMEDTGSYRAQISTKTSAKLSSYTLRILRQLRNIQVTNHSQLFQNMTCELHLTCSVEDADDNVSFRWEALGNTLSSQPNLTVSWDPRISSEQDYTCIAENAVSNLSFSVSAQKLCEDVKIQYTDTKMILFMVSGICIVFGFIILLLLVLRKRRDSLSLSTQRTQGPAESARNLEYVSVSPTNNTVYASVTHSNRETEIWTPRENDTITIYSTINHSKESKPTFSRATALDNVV

T2: NTB-A Δ4 deletion construct (human, UniProt Q96DU3 22-94)
T2 construct: Expressed in 293 cells and read by flow cytometry
T2 sequence: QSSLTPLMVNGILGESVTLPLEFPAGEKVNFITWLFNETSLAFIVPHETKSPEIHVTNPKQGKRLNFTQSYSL

T3: NTB-A Δ5 deletion construct (human, UniProt Q96DU3 22-64)
T3 construct: Expressed in 293 cells and read by flow cytometry
T3 chain: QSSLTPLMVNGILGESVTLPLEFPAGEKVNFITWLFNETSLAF

T4: NTB-A extracellular domain fused to a C-terminal tag of V5-His (NTB-A-ECD-V5His) (human)
T4 construct: Produced in HEK-293 cells; also called recombinant NTB-A protein; NTB-A V5-6His
T4 chain: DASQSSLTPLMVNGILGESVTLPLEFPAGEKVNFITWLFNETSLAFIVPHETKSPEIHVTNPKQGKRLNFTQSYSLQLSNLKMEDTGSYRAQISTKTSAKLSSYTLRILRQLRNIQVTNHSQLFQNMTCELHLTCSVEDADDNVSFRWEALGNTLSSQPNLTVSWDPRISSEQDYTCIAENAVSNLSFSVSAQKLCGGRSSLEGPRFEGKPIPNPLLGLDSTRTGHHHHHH


Columns and labels:
[1] = target: T1, human NTB-A (full-length, on cells); test: cell-based or functional assay
[2] = target: T2, NTB-A Δ4 deletion construct; test: flow cytometry on 293 cells expressing the deletion construct
[3] = target: T3, NTB-A Δ5 deletion construct; test: as above
[4] = target: T4, NTB-A extracellular domain fused to a …; test: SPR (BIAcore), mAb captured by anti-mouse mAb, antigen in solution, 25° C.; KD = kd/ka
Protocol: (§1) Kinetic rate constants (kₐ and kd) were determined using surface plasmon resonance and affinities (KD) were then calculated from the rate constants (kd/kₐ). Surface plasmon resonance was carried out on a BIAcore system (Biacore International AB, Uppsala, Sweden). […] Antigen was diluted to a starting concentration of 46 nM and tested for binding to the mAb samples using a 3-fold dilution series. Each of 5 concentrations was tested twice except the highest concentration which was tested 5 times in total, two times with a short dissociation of 300 seconds followed by three times with a dissociation of 60 minutes. The data sets from the long dissociation experiments were globally fit with the shorter […] experiments to determine binding constants for the interactions. The analysis was carried out in HBS, pH 7.4 buffer at 25° C. (Canziani et al, Anal. Biochem. 352:301-307 […]).

[5] = target: T4, NTB-A extracellular domain fused to a …; test: SPR (BIAcore), mAb captured by anti-mouse mAb, antigen in solution, 25° C.
Protocol: as §1

Row | binding result [2] | binding result [3] | EC50 of CDC on cells from CLL patients [1] [ng/mL] | Kd [4] [nM] | koff [5] [s⁻¹] | kon [5] [M⁻¹ s⁻¹] | Binder | EC50 of complement-dependent cytotoxicity (CDC) on CA46 cells [1] [ng/mL]
1 | no binding | no binding | – | – | – | – | anti-NTB-A monoclonal antibody 994.1 (antibody, mouse IgG2b, V domains shown, Murine IgG2b from a hybridoma; also called ATCC Deposit No. PTA-7831) VH: QIQLVQSGPDLKNPGKTVKISCKASGYTFTNFGMNWVKQSPERGLKWMGWINTYNGKPTYADDFKGQFAFSLETSATTAYLQINNLKNEDTAAYFCAKRGGTVDFGYWGQGTTLTVSS VL: EVVLTQSPTTMAASPGEKITVTCSASSPISSNFLHWYQQKPGFSPKLFIYRTSILASGVPARFSGSGSGTSFSLTIGAMEAEDVAAYYCQQGIYMPLTFGAGTKLELKR | ~10
2 | no binding | no binding | 9 to 15 | 1.25 | 0.0005 | 404000 | anti-NTB-A monoclonal antibody 480.12 (antibody, mouse IgG2b, V domains shown, Murine IgG2b from a hybridoma; also called ATCC Deposit No. PTA-7832) VH: QIQLVQSGPELKKPGETVKISCKASGYTFTNFGMNWVKQAPGKGLKWMGWINTYSGEATYADDFKGRFAFSLETSASTAFLQISNLKNEDTATYFCARRGGTAEFDYWGQGTPLTVSSA VL: EIVLTQSPTTVAASPGEKITITCSASSSISSNFLHWYQQKPGFSPKLLIYRTSKLASGVPGRFSGSGSGTSYSLTIGTMEAEDVATYYCQQGIYMPLTVGAGTKLELKRA | –
